Measurements taken from patent US7598033B2, “Method and devices for running reactions on a target plate for MALDI mass spectrometry” (University of Pennsylvania, priority 2003, dated 2009).

B1: tPA: pure tPA delivered by aerosol deposition to a sensing array (protein, UniProt P00750 36-562, looked up)
Tissue-type plasminogen …: SYQVICRDEKTQMIYQQHQSWLRPVLRSNRVEYCWCNSGRAQCHSVPVKSCSEPRCFNGGTCQQALYFSDFVCQCPEGFAGKCCEIDTRATCYEDQGISYRGTWSTAESGAECTNWNSSALAQKPYSGRRPDAIRLGLGNHNYCRNPDRDSKPWCYVFKAGKYSSEFCSTPACSEGNSDCYFGNGSAYRGTHSLTESGASCLPWNSMILIGKVYTAQNPSAQALGLGKHNYCRNPDGDAKPWCHVLKNRRLTWEYCDVPSCSTCGLRQYSQPQFRIKGGLFADIASHPWQAAIFAKHRRSPGERFLCGGILISSCWILSAAHCFQERFPPHHLTVILGRTYRVVPGEEEQKFEVEKYIVHKEFDDDTYDNDIALLQLKSDSSRCAQESSVVRTVCLPPADLQLPDWTECELSGYGKHEALSPFYSERLKEAHVRLYPSSRCTSQHLLNRTVTDNMLCAGDTRSGGPQANLHDACQGDSGGPLVCLNDGRMTLVGIISWGLGCGQKDVPGVYTKVTNYLDWIRDNMRP
B2: plasmin: pure plasmin, serine protease deposited on the array (protein, UniProt P00747 20-580; P00747 581-810, looked up)
Plasmin heavy chain A: EPLDDYVNTQGASLFSVTKKQLGAGSIEECAAKCEEDEEFTCRAFQYHSKEQQCVIMAENRKSSIIIRMRDVVLFEKKVYLSECKTGNGKNYRGTMSKTKNGITCQKWSSTSPHRPRFSPATHPSEGLEENYCRNPDNDPQGPWCYTTDPEKRYDYCDILECEEECMHCSGENYDGKISKTMSGLECQAWDSQSPHAHGYIPSKFPNKNLKKNYCRNPDRELRPWCFTTDPNKRWELCDIPRCTTPPPSSGPTYQCLKGTGENYRGNVAVTVSGHTCQHWSAQTPHTHNRTPENFPCKNLDENYCRNPDGKRAPWCHTTNSQVRWEYCKIPSCDSSPVSTEQLAPTAPPELTPVVQDCYHGDGQSYRGTSSTTTTGKKCQSWSSMTPHRHQKTPENYPNAGLTMNYCRNPDADKGPWCFTTDPSVRWEYCNLKKCSGTEASVVAPPPVVLLPDVETPSEEDCMFGNGKGYRGKRATTVTGTPCQDWAAQEPHRHSIFTPETNPRAGLEKNYCRNPDGDVGGPWCYTTNPRKLYDYCDVPQCAAPSFDCGKPQVEPKKCPGR
Plasmin light chain B: VVGGCVAHPHSWPWQVSLRTRFGMHFCGGTLISPEWVLTAAHCLEKSPRPSSYKVILGAHQEVNLEPHVQEIEVSRLFLEPTRKDIALLKLSSPAVITDKVIPACLPSPNYVVADRTECFITGWGETQGTFGAGLLKEAQLPVIENKVCNRYEFLNGRVQSTELCAGHLAGGTDSCQGDSGGPLVCFEKDKYILQGVTSWGLGCARPNKPGVYVRVSRFVTWIEGVMRNN
modifications: plasmin
notes: pure plasmin, serine protease deposited on the array

Tests used:
[1] = Fluorogenic substrate microarray: tPA on tPA, thrombin and Xa substrates; type: biochemical; conditions: aerosol deposition of pure tPA 10 μM
Description: (§1) Well characterized for over 30 years, serine proteases of the coagulation pathway in plasma were selected as a system in which to monitor the delivery of complex enzyme fluids to the microassay. Fluorogenic substrates in DMSO/glycerol were assayed to a glass slide.
(§2) After spray application, thrombin caused a 65-fold increase in fluorescence activity after conversion of the boc-VPR-MCA substrate. […] Aerosol deposition of pure tPA (10 μM) to a sensing array caused significant cleavage of the tPA, thrombin and Xa substrates, resulting in fluorescence that was 18- to 20-fold above background.

[2] = Fluorogenic substrate microarray: plasmin on thrombin and kallikrein substrates; type: biochemical; conditions: pure plasmin 1 μM
Description: as §1, §2

[3] = Fluorogenic substrate microarray, aerosol deposition of enzyme: boc-VLK-MCA; type: biochemical; conditions: pure plasmin 1 μM deposited on the array
[4] = Morita, 1977; cited from earlier work
[5] = test system: fluorogenic substrates on the array; assay: Microarray assay of diluted recalcified citrated plasma with added plasmin; type: biochemical, human
Description: as §1
The microarray detected the modest activation of the coagulation pathway in recalcified diluted plasma due to low level factor Xa and thrombin activity (Butenas, 1997; Rand, 1996). Since corn trypsin inhibitor was not present to inhibit factor XIIa (Rand, 1996), moderate activation of the contact system and kallikrein generation was detected by conversion of the kallikrein substrate.
[…] This plasmin activity was detected by a strong signal in the plasmin substrate spot. […] Plasmin is also a potent activator of factor XU to factor XUa which can in turn convert prekallikrein to kallilkrein.

| Molecule | fluorescence above background from cleavage of the tPA, thrombin and Xa substrates [1] | activity on the thrombin and kallikrein substrates [2] | signal for the boc-VLK-MCA substrate above background [3] [fold] | reported activity on boc-VPR-MCA and Z-FR-MCA [4] | reported activity on tPA and factor Xa substrates [4] | signal in the plasmin substrate spot ([5]; plasmin 0.43 μM final concentration added to diluted recalcified citrated plasma) | cleavage of substrates on the array ([5]; plasmin 2.14-1 μM final concentration added to plasma) |
| --- | --- | --- | --- | --- | --- | --- | --- |
| B1 | 18- to 20 fold | – | – | – | – | – | – |
| B2 | – | detectable activity | 25 | activity | no detectable activity | strong signal | significant cleavage of each substrate |
